Measured values taken from US20250332254A1, “METHODS FOR TREATING PATIENTS WITH FAMILIAL HYPERCHOLESTEROLEMIA” (REGENERON PHARMACEUTICALS, INC., priority 2016, published 2025).
“And” between values parts separate entries of the source, which are not always exact repeats. Equal values may be shown once.

Tests used:
[1] = target: T1, ANGPTL3 (Homo sapiens, UniProt Q9Y5C1); test: Phase 2 open-label study of evinacumab in patients with homozygous familial hypercholesterolemia on concomitant lipid-lowering therapies; format: in vivo; conditions: for LDL-C, Mean of Percent Change from Baseline ± SE (%) / Non-HDL-C, Mean of Percent Change from Baseline ± SE (%) / Apolipoprotein B, Mean of Percent Change from Baseline ± SE (%): 250 mg SC wk 0 + 15 mg/kg IV wk 2
T1 construct: Angiopoietin-like protein 3 (ANGPTL3) is a secreted protein expressed in the liver; from tissue; host or cells: in vivo, human subjects; circulating protein secreted by the liver
T1 sequence (Q9Y5C1 17-460): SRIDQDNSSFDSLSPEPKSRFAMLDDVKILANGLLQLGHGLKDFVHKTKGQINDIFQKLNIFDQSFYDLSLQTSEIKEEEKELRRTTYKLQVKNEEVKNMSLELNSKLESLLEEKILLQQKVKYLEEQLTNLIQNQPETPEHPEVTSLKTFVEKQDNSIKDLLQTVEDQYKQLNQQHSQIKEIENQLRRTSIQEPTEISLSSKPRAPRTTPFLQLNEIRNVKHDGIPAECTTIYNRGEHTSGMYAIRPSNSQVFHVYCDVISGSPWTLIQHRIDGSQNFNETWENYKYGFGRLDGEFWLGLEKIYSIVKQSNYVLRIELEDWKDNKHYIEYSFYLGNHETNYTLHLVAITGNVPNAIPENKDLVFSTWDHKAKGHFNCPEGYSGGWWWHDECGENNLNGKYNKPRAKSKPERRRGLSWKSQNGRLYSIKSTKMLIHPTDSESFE
Method: Patients: The nine patients (5 men, 4 women) were selected based on their genotypes and phenotypes. All presented a history of LDL-C >500 mg per deciliter or >400 mg per deciliter after portacaval shunt, premature atherosclerosis (8 of 9 with prior history of cardiovascular events) and severe xanthomatosis, and were homozygotes or compound heterozygotes for known FH-causing LDLR mutations (Hobbs, et al. 1992 Hum Mutat 1:445-66). Three patients were null homozygotes. All patients were on maximally tolerated lipid-lowering therapy.
Study Treatment: The patients were required to maintain their usual background lipid-lowering therapy and diet and exercise regimens throughout the study. All patients received a single open-label dose of evinacumab 250 mg subcutaneously in the abdominal area during the baseline visit and a single 15 mg per kilogram intravenous dose of evinacumab 2 weeks later. The sterile, lyophilized evinacumab drug product was supplied in a 5-ml single-use glass vial for reconstitution to a concentration of 100 mg per milliliter for subcutaneous doses and 50 mg per milliliter for intravenous doses. Patients were followed for a period of up to 24 weeks after the intravenous dose to allow for washout of evinacumab, and were offered enrollment in an extension study.
Pharmacodynamic Assessment: Fasting blood samples were collected before administration of study drug, at baseline and at regular intervals during the open-label treatment period and safety follow-up period, for measurement of LDL-C, non-HDL-C, total cholesterol, HDL-C, apolipoprotein B, lipoprotein (a), triglycerides, apolipoprotein A-1, and other parameters. The primary endpoint was the mean ±standard deviation (SD) percent change in LDL-C from baseline to week 4.

[2] = target: T2, ANGPTL3 (Mus musculus, UniProt Q9R182); conditions: mouse model; Wang, et al. 2015; cited from earlier work
T2 construct: host or cells: mouse, in vivo
T2 sequence (Q9R182 17-455): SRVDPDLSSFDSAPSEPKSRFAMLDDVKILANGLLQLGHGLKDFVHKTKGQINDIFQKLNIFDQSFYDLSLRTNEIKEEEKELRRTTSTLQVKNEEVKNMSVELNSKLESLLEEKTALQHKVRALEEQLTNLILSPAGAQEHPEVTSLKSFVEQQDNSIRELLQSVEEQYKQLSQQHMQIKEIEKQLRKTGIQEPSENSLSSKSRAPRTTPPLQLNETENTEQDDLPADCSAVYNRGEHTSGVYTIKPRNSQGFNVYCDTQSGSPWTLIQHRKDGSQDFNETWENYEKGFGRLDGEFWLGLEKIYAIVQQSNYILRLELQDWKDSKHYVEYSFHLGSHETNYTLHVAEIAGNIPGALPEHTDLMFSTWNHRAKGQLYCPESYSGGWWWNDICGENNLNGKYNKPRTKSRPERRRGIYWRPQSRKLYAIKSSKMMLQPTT

[3] = target: T1, ANGPTL3; test: Phase 1 first-in-human ascending single-dose placebo-controlled study of evinacumab SC or IV in subjects with elevated TGs and/or LDL-C; format: in vivo
Method: Methods: The instant study constituted a phase 1, first-in-human, ascending single-dose, placebo (PBO)-controlled, double-blind study of evinacumab administered subcutaneously (SC) or intravenously (IV) in subjects with elevations of TGs (150≤TG≤450 mg/dL) and/or LDL C (≥100 mg/dL). Eighty-three subjects were randomized into the study (9 in PBO SC; 12 in PBO IV; 11 in 75 mg SC: 12 in 150 mg SC, 9 in 250 mg SC, 10 in 5 mg/kg IV, 9 in 10 mg/kg IV, and 11 in 20 mg/kg IV).

[4] = target: T1, ANGPTL3; conditions: Dewey, et al. 2017; cited from earlier work
[5] = 3 homozygous null patients, through week 12
[6] = nine HoFH patients, baseline to week 4, given as a decrease
[7] = nine HoFH patients, between weeks 4 and 12

mean±SD peak reduction in LDL-C [1, 5]: −48±13%
range of peak reduction in LDL-C [1, 5]: −60% to −33%
absolute reductions in LDL-C achieved ([1]; HoFH patients): 150 to 200 mg/dL
LDL-C, Mean of Percent Change from Baseline ± SE (%) ([1]; HoFH patients, Day 4): −12.8 ± 3.7%
Non-HDL-C, Mean of Percent Change from Baseline ± SE (%) ([1]; HoFH patients, Day 4): −13.6 ± 3.6%
LDL-C, Mean of Percent Change from Baseline ± SE (%) ([1]; HoFH patients, Week 1): −24 ± 7.0%
Non-HDL-C, Mean of Percent Change from Baseline ± SE (%) ([1]; HoFH patients, Week 1): −24.1 ± 6.7%
Apolipoprotein B, Mean of Percent Change from Baseline ± SE (%) ([1]; HoFH patients, Week 2): −24.2 ± 7%
LDL-C, Mean of Percent Change from Baseline ± SE (%) ([1]; HoFH patients, Week 2): −30.2 ± 8.1%
Non-HDL-C, Mean of Percent Change from Baseline ± SE (%) ([1]; HoFH patients, Week 2): −29.6 ± 7.8%
Apolipoprotein B, Mean of Percent Change from Baseline ± SE (%) ([1]; HoFH patients, Week 3): −38.6 ± 7.3%
LDL-C, Mean of Percent Change from Baseline ± SE (%) ([1]; HoFH patients, Week 3): −41.4 ± 8.3%
Non-HDL-C, Mean of Percent Change from Baseline ± SE (%) ([1]; HoFH patients, Week 3): −41.6 ± 8%
Apolipoprotein B, Mean of Percent Change from Baseline ± SE (%) ([1]; HoFH patients, Week 4): −45.9 ± 6.1%
LDL-C, Mean of Percent Change from Baseline ± SE (%) ([1]; HoFH patients, Week 4): −49.2 ± 7.7%
Non-HDL-C, Mean of Percent Change from Baseline ± SE (%) ([1]; HoFH patients, Week 4): −48.9 ± 7.4%
Apolipoprotein B, Mean of Percent Change from Baseline ± SE (%) ([1]; HoFH patients, Week 5): −42.3 ± 4.7%
LDL-C, Mean of Percent Change from Baseline ± SE (%) ([1]; HoFH patients, Week 5): −46.8 ± 5.1%
Non-HDL-C, Mean of Percent Change from Baseline ± SE (%) ([1]; HoFH patients, Week 5): −46.6 ± 5.0%
Apolipoprotein B, Mean of Percent Change from Baseline ± SE (%) ([1]; HoFH patients, Week 6): −43.1 ± 4.9%
LDL-C, Mean of Percent Change from Baseline ± SE (%) ([1]; HoFH patients, Week 6): −52.1 ± 4.9%
Non-HDL-C, Mean of Percent Change from Baseline ± SE (%) ([1]; HoFH patients, Week 6): −51.5 ± 4.8%
Apolipoprotein B, Mean of Percent Change from Baseline ± SE (%) ([1]; HoFH patients, Week 8): −42.7 ± 4.8%
LDL-C, Mean of Percent Change from Baseline ± SE (%) ([1]; HoFH patients, Week 8): −51.6 ± 6.0%
Non-HDL-C, Mean of Percent Change from Baseline ± SE (%) ([1]; HoFH patients, Week 8): −50.6 ± 5.7%
LDL-C, Mean of Percent Change from Baseline ± SE (%) ([1]; HoFH patients, Week 10): −45.6 ± 4.6%
Non-HDL-C, Mean of Percent Change from Baseline ± SE (%) ([1]; HoFH patients, Week 10): −44.8 ± 4.4%
Apolipoprotein B, Mean of Percent Change from Baseline ± SE (%) ([1]; HoFH patients, Week 12): −29.5 ± 7.2%
LDL-C, Mean of Percent Change from Baseline ± SE (%) ([1]; HoFH patients, Week 12): −36.6 ± 6.4%
Non-HDL-C, Mean of Percent Change from Baseline ± SE (%) ([1]; HoFH patients, Week 12): −36.4 ± 6.2%
LDL-C reached, Patient C ([1]; Patient C on high-dose statins, ezetimibe and lomitapide, week 4, 2 weeks after evinacumab intravenous administration): 15 mg per deciliter
reduction in LDL-C, Patient C ([1]; Patient C, concomitant lomitapide, 2 weeks after evinacumab intravenous administration): 90%
reduction in LDL-C, Patient G ([1]; Patient G, concomitant lomitapide, 2 weeks after evinacumab intravenous administration): 44%
triglycerides percent change, interquartile range ([1]; nine HoFH patients, baseline to week 4): −57% to −38%
HDL-C decreased by (percent change, mean±SD) [1, 6]: 36±16%
apolipoprotein B decreased by (percent change, mean±SD) [1, 6]: 46±18%
non-HDL-C decreased by (percent change, mean±SD) [1, 6]: 49±22%
triglycerides decreased by (percent change, median) [1, 6]: 47%
Overall mean±SD peak reduction in LDL-C [1, 7]: -58+18% and −58±18%
absolute peak reduction in LDL-C [1, 7]: 202 mg/dL
range of peak reduction in LDL-C ([1]; nine HoFH patients, between weeks 4 and 12, range across patients): -90% to-33%
absolute change from baseline in LDL-C (mean±SD) ([1]; nine HoFH patients, week 4): −157±90 mg per deciliter
mean±SD achieved LDL-C value ([1]; nine HoFH patients, week 4): 219±191 mg per deciliter
mean±SD percent change in LDL-C from baseline to week 4 (pre-specified primary endpoint) ([1]; nine HoFH patients, week 4): −49±23%
range of absolute change from baseline in LDL-C ([1]; nine HoFH patients, week 4, range across patients): −323 to −71 mg per deciliter
reduction in LDL-C achieved by one patient ([1]; one patient, week 4 (2 weeks after the intravenous dose)): greater than 80%
reduction in LDL-C, patient D ([1]; patient D, no lomitapide, week 4): −77%
TG, median % change from baseline (maximum TG reductions) ([3]; Day 4, across the evinacumab doses (75-250 mg SC, 5-20 mg/kg IV)): −1.0% to −75.0%
LDL-C, mean % changes from baseline ([3]; Day 11, across the evinacumab doses (75-250 mg SC, 5-20 mg/kg IV)): −3.4% to −25.5%
duration of LDL reduction ([3]; after 20 mg/kg IV): 43 days
duration of TG reduction ([3]; after 20 mg/kg IV): 64 days
effect on HDL-C, VLDL-C, total cholesterol, non-HDL-C, ApoA1, and ApoB ([3]; human, in vivo): Dose-dependent reductions
effect on Lp(a) ([3]; human, in vivo): no apparent effects
effect on major lipid fractions ([3]; normal healthy volunteers): reduced the three major lipid fractions
Substance: evinacumab: human anti-ANGPTL3 monoclonal antibody; HCVR SEQ ID NO:1, LCVR SEQ ID NO:5
tolerability ([1]; 250-mg subcutaneous injection at baseline and 15 mg per kilogram intravenous infusion at week 2): well tolerated
reductions in LDL-C from baseline in all patients ([1]; all nine patients, including the three homozygous null patients lacking LDLR activity): clinically meaningful reductions in LDL-C from baseline
normalization of LDL-C concentrations ([1]; evinacumab add-on therapy in HoFH participants): normalization of LDL-C concentrations in four HoFH participants
LDL-C decreased (primary endpoint) ([1]; nine HoFH adults on maximally-tolerated conventional therapies, week 4, given as a decrease): 49%
adverse events considered as related to the study medication ([1]; nine HoFH patients): Six events were considered as related to the study medication
adverse events leading to treatment discontinuation ([1]; nine HoFH patients): none led to treatment discontinuation
occurrence of at least one adverse event ([1]; nine HoFH patients): All nine patients reported the occurrence of at least one adverse event
serious adverse events ([1]; nine HoFH patients): One event (coronary artery disease due to underlying disease) was serious but was not considered as related to the study medication
number of VLDLs secreted by the liver and character of VLDL particles [2]: did not affect the number of VLDLs secreted by the liver, but qualitatively altered the VLDL particles that were made
headache (TEAE), number of subjects ([3]; evinacumab group): 7
headache (TEAE), percent of subjects ([3]; evinacumab group): 11.3%
subjects reporting at least one treatment emergent adverse event (TEAE), number ([3]; evinacumab group): 32 subjects
subjects reporting at least one treatment emergent adverse event (TEAE), percent ([3]; evinacumab group): 51.6%
increases in ALT/AST [>2X ULN], number of subjects ([3]; evinacumab-treated): 5 treated subjects
effect on TGs, LDL-C and HDL-C ([3]; healthy subjects with moderately elevated TGs and/or LDL-C): rapid and substantial reductions in TGs, as well as reductions in LDL-C and HDL-C
discontinuation due to a TEAE ([3]; human, in vivo): no subject discontinued due to a TEAE
dose-related safety trend ([3]; human, in vivo): no dose-related safety trend
serious TEAEs ([3]; human, in vivo): None were serious
tolerability ([3]; single SC or IV dose, subjects with moderately elevated TGs and/or LDL-C): generally well-tolerated
tolerability and LDL-C effect in first-in-human study of healthy human volunteers [4]: shown to reduce LDL-C and was also well tolerated
